These results are taken from patent US20160312207A1 (Stanford University, published 2016).

Experiment [1] deals with T1, human RSPO1 (human, UniProt Q2MKA7 21-263, limits assumed).
T1 construct: Recombinant protein; also called R-spondin 1; recombinant R-spondin
Kind of experiment: Biacore (SPR). (In general: SPR reads the build-up and loss of mass on a sensor chip optically.)

Experiment [2] has as its target T2, human RSPO4 (human, UniProt Q2I0M5 20-234, limits assumed).
T2 construct: Recombinant protein; also called R-spondin 4
Kind of experiment: Biacore (SPR).

Experiment [3] has as its target T3, human RSPO3 (human, UniProt Q9BXY4 22-272, limits assumed).
T3 construct: Recombinant protein; also called R-spondin 3
T3 sequence (looked up): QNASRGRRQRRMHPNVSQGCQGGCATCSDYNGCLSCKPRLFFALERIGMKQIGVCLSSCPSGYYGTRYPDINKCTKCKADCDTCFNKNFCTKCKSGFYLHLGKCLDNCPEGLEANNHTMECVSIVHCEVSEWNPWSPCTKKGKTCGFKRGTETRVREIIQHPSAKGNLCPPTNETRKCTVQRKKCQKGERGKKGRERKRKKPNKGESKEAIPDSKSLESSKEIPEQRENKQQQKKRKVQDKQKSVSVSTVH
Kind of experiment: Biacore (SPR).

Experiment [4] concerns the target T4, human RSPO2 (human, UniProt Q6UXX9 22-243, limits assumed).
T4 construct: Recombinant protein; also called R-spondin 2; recombinant human RSPO2
Briefly: Biacore (SPR).

In experiment [5] the target is T3, human RSPO3. Briefly: Biacore (SPR), against ZNRF3-Fc ECD fusion tested in parallel.
Experiment [6] addresses T4, human RSPO2. The description is as above.
Experiment [7] concerns the target T3, human RSPO3. Kind of experiment: Biacore (SPR); human RSPO3.
The target of experiment [8] is T4, human RSPO2. Kind of experiment: Biacore (SPR); human RSPO2.
The target in experiment [9] is T1, human RSPO1. Briefly: Biacore (SPR); human RSPO1.
The target of experiment [10] is T2, human RSPO4. Kind of experiment: Biacore (SPR); human RSPO4.

T4 sequence (Q6UXX9 22-243 limits assumed): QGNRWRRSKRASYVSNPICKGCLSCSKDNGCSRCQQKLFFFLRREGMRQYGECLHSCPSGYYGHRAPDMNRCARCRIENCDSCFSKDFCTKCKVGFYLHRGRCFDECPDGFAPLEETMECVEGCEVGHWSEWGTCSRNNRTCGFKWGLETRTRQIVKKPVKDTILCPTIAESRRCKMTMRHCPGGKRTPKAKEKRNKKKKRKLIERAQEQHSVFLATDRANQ
T2 sequence (Q2I0M5 20-234 limits assumed): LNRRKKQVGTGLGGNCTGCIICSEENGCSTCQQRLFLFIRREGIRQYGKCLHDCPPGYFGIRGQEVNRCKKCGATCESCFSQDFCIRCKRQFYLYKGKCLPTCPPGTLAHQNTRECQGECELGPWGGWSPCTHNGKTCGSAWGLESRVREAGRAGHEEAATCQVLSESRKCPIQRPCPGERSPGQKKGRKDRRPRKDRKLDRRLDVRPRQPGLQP
T1 sequence (Q2MKA7 21-263 limits assumed): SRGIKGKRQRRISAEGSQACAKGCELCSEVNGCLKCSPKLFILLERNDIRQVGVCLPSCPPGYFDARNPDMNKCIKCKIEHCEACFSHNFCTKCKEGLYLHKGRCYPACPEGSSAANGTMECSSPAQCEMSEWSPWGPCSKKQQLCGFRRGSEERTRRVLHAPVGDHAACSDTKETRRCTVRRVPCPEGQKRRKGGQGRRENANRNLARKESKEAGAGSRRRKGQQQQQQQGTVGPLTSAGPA

For ZNRF3-Fc ECD fusion (Fc fusion), the dissociation constant Kd is 381 nM with human RSPO1 [1], > 1000 nM in the experiment with human RSPO4 [2], 6.58 nM with human RSPO3 [3] and 12.8 nM in the experiment with human RSPO2 [4].

B1: soluble RNF43-Fc ECD fusion protein (Fc fusion)
chain: GFGHTGRVLAAAVESERSAEQKAVIRVIPLKMDPTGKLNLTLEGVFAGVAEVTPAEGKLMQSHPLYLCNASDDDNLEPGFISIVKLESPRRAPRPCLSLASKARMAGERGANAVLFDITEDRSAAEQLQQPLGLTKPVVLIWGSDAAKLMEFVYKNRKAYVWIELKEPPRRLEPRGPTIKPCPPCKCPAPNLLGGPSVFIFPPKIKDVLMISLSPIVTCVVVDVSEDDPDVQISWFVNNVEVHTAQTQTHREDYNSTLRVVSALPIQHQDWMSGKEFKCKVNNKDLPAPIERTISKPKGSVRAPQVYVLPPPEEEMTKKQVTLTCMVTDFMPEDIYVEWTNNGKTELNYKNTEPVLDSDGSYFMYSKLRVEKKNWVERNSYSCSVVHEGLHNHHTTKSFSRTPGK
notes: No linker between ECD and Fc is stated; also called RNF43 ECD-Fc fusion protein; RNF43 ECD
On to B1, for which the entries for the “fold stronger affinity than the ZNRF3-Fc ECD fusion” value with human RSPO3 [5] and with human RSPO2 [6] were ~4500 fold and ~7000 fold, respectively. Besides, the Kd in the experiment with human RSPO3 [7] was 0.00145 nM; in the experiment with human RSPO2 [8] it was 0.00182 nM; in the experiment with human RSPO1 [9], 53 nM; with human RSPO4 [10], 142 nM.

As a reminder, the Kd is the equilibrium constant for the complex coming apart. Higher therefore signals a looser complex.
